Data published in the supplement of paper PMC9170038.

Test system: MS2 coat protein
Assay: apparent KD of MS2 coat protein; designed switch direction (-1 OFF switch, 1 ON switch): 1; higher = weaker reporter binding
How it was run: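 The apparent KD reported per design is the median over clusters of curve fits to normalised cluster fluorescence. The RNA switches were transcribed on Illumina chips by stalled E. coli RNA polymerase. SNAP-549-labelled MS2 coat protein was titrated from 0.7 or 1.5 nM, doubling up to 3 µM, in Tris-HCl pH 7.5 buffer containing KCl, MgCl2, BSA, DTT, tRNA and Tween-20, with no input, 200 uM small-molecule ligand, or an oligonucleotide input.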

[1] = Eterna round: R95, input ligand: FMN 200 uM
[2] = Eterna round: R95, input ligand: microRNA oligo, concentration not stated
[3] = Eterna round: R95, input ligand: none
[4] = input ligand: microRNA oligo, concentration not stated

CGUCCGGCCUGUGCUGGCCGGUUGCUUGUACAUGAGGAUCACCCAUGUUCAUGUGCAGGCUUUUUGCUCGUCUUGUG [salish99_mir208a_015] (puzzle: Sensor for hsa-mir-208a)
apparent KD of MS2 coat protein [1]: 0.0383 µM | apparent KD of MS2 coat protein [2]: 0.0311 µM | apparent KD of MS2 coat protein [3]: 0.0458 µM

GGUGUACAUGAGGAUCACCCAUGUCGUACGACAUGAGGAUAUGUACAGACUUCGGUCUGUACAGAAGGCAUGUGUC [SS1 - 1011 Omei Mod 5] (puzzle: Same State 1)
apparent KD of MS2 coat protein [2]: 0.21 µM

ACAUGAGAGAUAGGAUAUCUUGUACCUACAUGUGACAUGAGGAUCACCCAUGUGGUAAGUAUGACAGAGAAGGAUCAGAUAUGU [Equivalance 70 - Jieux - Same State NG 2] (Eterna round: R96, puzzle: Same State NG 2)
apparent KD of MS2 coat protein (input ligand: FMN 200 uM): 0.0205 µM | apparent KD of MS2 coat protein [4]: 0.0628 µM | apparent KD of MS2 coat protein (input ligand: none): 0.0824 µM

GCGGAAACUCACAUGAGGAUCACCCAUGUUCCGGAAACGGCACAGGAUAUCUGUCCGAAAAGGUCAGAGAAGGGUGUAAUCCGC [Fiskers NG3ss - 90] (Eterna round: R96, puzzle: Same State NG 3)
apparent KD of MS2 coat protein (input ligand: FMN 200 uM): 0.572 µM | apparent KD of MS2 coat protein [4]: 0.101 µM | apparent KD of MS2 coat protein (input ligand: none): 0.0796 µM

GGUCGGACUCACAUGAGGAUCACCCAUGUUGCGGAAACGCCAUAGGAUAUCUGUCCGAAAAGGUCAGAGAAGGGUGAACCGACC [Fiskers NG3ss - 65] (Eterna round: R96, puzzle: Same State NG 3)
apparent KD of MS2 coat protein (input ligand: FMN 200 uM): 0.515 µM | apparent KD of MS2 coat protein [4]: 0.391 µM | apparent KD of MS2 coat protein (input ligand: none): 0.572 µM

AGCUAUUACGAAGGAUAUUGUGACAUGAGGAUCACCCAUGUUUUCAUGAUUAAUUGUGAUCACGUCGAGAAGGUUGUACUAACA [SameState NG2 #30] (Eterna round: R96, puzzle: Same State NG 2)
apparent KD of MS2 coat protein [4]: 0.043 µM

AUCCUACAUGAGGAUCACCCAUGUGACGCCUCAAUAGGAUAUCGGGCCCAAAAUCGGGCACGAGAAGGAUUGAAGC [Aveso] (puzzle: Same State 1)
apparent KD of MS2 coat protein [1]: 0.0852 µM | apparent KD of MS2 coat protein [2]: 0.172 µM | apparent KD of MS2 coat protein [3]: 0.163 µM

AAUCGUUUGAUAGGAUAUCGCUAUACAUGAGGAUCACCCAUGUUUACCACGCUGGUUUUUCAUACCGAGAAGGAUUCUGAUGAA [salish99_SSNG02_r04_003] (Eterna round: R96, puzzle: Same State NG 2)
apparent KD of MS2 coat protein (input ligand: FMN 200 uM): 0.0315 µM | apparent KD of MS2 coat protein [4]: 0.0271 µM | apparent KD of MS2 coat protein (input ligand: none): 0.0334 µM

GCCCGUAGCCACAUGAGGAUCACCCAUGUGCAGUUGUGAUCCGAGGAUAUUGCUAUUUGAGAUAGUAAGAAGGUGGACCGCGGU [Eternabot solution 31] (Eterna round: R96, puzzle: Same State NG 3)
apparent KD of MS2 coat protein (input ligand: FMN 200 uM): 0.109 µM | apparent KD of MS2 coat protein [4]: 0.0844 µM | apparent KD of MS2 coat protein (input ligand: none): 0.143 µM

AAAAGACAGGCAGGAUAUGGGCCUGGCUCUGAUAUCAGAGCCUACACAUGAGGAUCACCCAUGUCCCAGAAGGGCCUGUAGAAG [Cetiriqu] (Eterna round: R96, puzzle: Same State NG 2)
apparent KD of MS2 coat protein (input ligand: FMN 200 uM): 0.0194 µM | apparent KD of MS2 coat protein [4]: 0.0653 µM | apparent KD of MS2 coat protein (input ligand: none): 0.0791 µM

AUAAAUAACACAGGAUAUCCACACGAAUAGUGCGGAGAAGGGUGAACGUCGGCUCUCGCCAACAUGAGGAUCACCCAUGUAAAA [Tediissobe] (Eterna round: R96, puzzle: Same State NG 1)
apparent KD of MS2 coat protein (input ligand: FMN 200 uM): 0.0644 µM | apparent KD of MS2 coat protein [4]: 0.0127 µM | apparent KD of MS2 coat protein (input ligand: none): 0.0315 µM

GUUACAUGAGGAUCACCCAUGUAUGUGUGGGAGUAAGUGUCUUAGGAUAUCUGUUAUUUAAUAUAAGAGAAGGAAGAUUGUUGU [JMF's solution 44] (Eterna round: R96, puzzle: Same State NG 3)
apparent KD of MS2 coat protein (input ligand: FMN 200 uM): 0.123 µM | apparent KD of MS2 coat protein [4]: 0.0765 µM | apparent KD of MS2 coat protein (input ligand: none): 0.108 µM

AGAGGAGGAGCAGGAUAUGCGAAGAAGAACGUGGCAGAAGGGUUCAUGCGAUGACAUGAGGAUCACCCAUGUACCGCGCGAGGA [AK SSNG1-V2-10] (Eterna round: R96, puzzle: Same State NG 1)
apparent KD of MS2 coat protein (input ligand: FMN 200 uM): 0.0644 µM | apparent KD of MS2 coat protein [4]: 0.0339 µM | apparent KD of MS2 coat protein (input ligand: none): 0.0626 µM

GCUCGUAUCACAGCCAACAUGAGGAUCACCCAUGUAUGUUGGUAGGAUAUCUAUAUUAAGGAUAUAGAGAAGGGCCGAACGAGC [SameState NG3 #11] (Eterna round: R96, puzzle: Same State NG 3)
apparent KD of MS2 coat protein (input ligand: FMN 200 uM): 0.121 µM | apparent KD of MS2 coat protein [4]: 0.126 µM | apparent KD of MS2 coat protein (input ligand: none): 0.145 µM

CUACGAGCGCCACAGGAUAUACUGAGACUCACAUGAGGAUCACCCAUGUCCAAUUCUCCCAAAUAGUAGAAGGGUGACGCGCUCA [Soordire] (puzzle: Same State 2)
apparent KD of MS2 coat protein [1]: 0.0511 µM | apparent KD of MS2 coat protein [2]: 0.565 µM | apparent KD of MS2 coat protein [3]: 0.546 µM

AGCCGAAGCGCAGGAUAUACAUGGAUACAUGAGGAUCACCCAUGUAGCAACACGUGGUAGUGAUUGUAGAAGGGUGCUCGGCGC [Omei SS(NG)2 Cv17] (Eterna round: R96, puzzle: Same State NG 2)
apparent KD of MS2 coat protein (input ligand: FMN 200 uM): 0.0274 µM | apparent KD of MS2 coat protein [4]: 0.0355 µM | apparent KD of MS2 coat protein (input ligand: none): 0.0546 µM

GUAGCAUACCGAGGAUAUUCAUUACAUGAGGAUCACCCAUGUUUUAUAGGCCGAUUACGGCCUUGGGAGAAGGCGGAAUGCUAC [Xeonanis - 20 Mod27] (Eterna round: R96, puzzle: Same State NG 2)
apparent KD of MS2 coat protein [4]: 0.0097 µM

AAUCAACAUGAGGAUCACCCAUGUCACACAAAGUGAGGAUAUUGGAAAUAAAUAAUAAAACGAGAAGGCGCUGCGG [OBB] (puzzle: Same State 1)
apparent KD of MS2 coat protein [1]: 0.0266 µM | apparent KD of MS2 coat protein [2]: 0.0445 µM | apparent KD of MS2 coat protein [3]: 0.06 µM

GGUCCAGCCUGAGCUGGACAAAAGCAUGUACAUGAGGAUCACCCAUGUCAUGUACAAGCUUUUUGCUCGUCUUAAGA [Mat - hsa-mir-208a - 88] (Eterna round: R96, puzzle: Sensor for hsa-mir-208a)
apparent KD of MS2 coat protein (input ligand: FMN 200 uM): 0.752 µM | apparent KD of MS2 coat protein [4]: 0.0154 µM | apparent KD of MS2 coat protein (input ligand: none): 0.712 µM

ACCCAAGGUAUAUGGGAACAAGCUUUUUAACAUGAGGAUCACCCAUGUACUCGUCUUAUAAGCAGUCGAAAGACUGC [Sensor 100 - 6] (puzzle: Sensor for hsa-mir-208a)
apparent KD of MS2 coat protein [1]: 0.619 µM | apparent KD of MS2 coat protein [2]: 0.0161 µM | apparent KD of MS2 coat protein [3]: 0.831 µM

GCUCCAAACACAGGAUAUGGAAUCUGAUUCAUGCGAGUGACAUGAGGAUCACCCAUGUCCGGCAGCCAGAAGGGUGGGAAACAU [Eternabot solution 27] (Eterna round: R96, puzzle: Same State NG 2)
apparent KD of MS2 coat protein (input ligand: FMN 200 uM): 0.184 µM | apparent KD of MS2 coat protein [4]: 0.151 µM | apparent KD of MS2 coat protein (input ligand: none): 0.201 µM

GUGGUCAGACAUGAGGAUCACCCAUGUGGAAUAAAUAAGGGUCAGGAUAUGAAAUAUAGGAUAUAUCAGAAGGGAUGGUUGGUG (Eterna round: R96, puzzle: Same State NG 3)
apparent KD of MS2 coat protein (input ligand: FMN 200 uM): 0.101 µM | apparent KD of MS2 coat protein [4]: 0.0811 µM | apparent KD of MS2 coat protein (input ligand: none): 0.0905 µM

GCUAGAAAUAAAGCCAACAUGAGGAUCACCCAUGUAUGUUGGUAGGAUAUCGUUUGCAAAGCAAACGAGAAGGGCUAAACUAGC [Mat - Same State NG 3 - JL Mod - D17] (Eterna round: R96, puzzle: Same State NG 3)
apparent KD of MS2 coat protein (input ligand: FMN 200 uM): 0.0616 µM | apparent KD of MS2 coat protein [4]: 0.0688 µM | apparent KD of MS2 coat protein (input ligand: none): 0.061 µM

CUGGAAAACACAGGAUAUACCCGUGAAUCACGGGUAGAAGGGUGAAACAUGAGGAUCACCCAUGUUACCUCCCAAGGGAGGAUU [Zaleisge] (Eterna round: R96, puzzle: Same State NG 1)
apparent KD of MS2 coat protein (input ligand: FMN 200 uM): 0.432 µM | apparent KD of MS2 coat protein [4]: 0.518 µM | apparent KD of MS2 coat protein (input ligand: none): 0.946 µM

UGUUGUUAAUUAGGAUAUGGUCACAUGAGGAUCACCCAUGUAAUGUCGAUGCUAUGUGGAUCUGAUCAGAAGGAAUGGCUAACA [SameState NG2 #96] (Eterna round: R96, puzzle: Same State NG 2)
apparent KD of MS2 coat protein (input ligand: FMN 200 uM): 0.108 µM | apparent KD of MS2 coat protein [4]: 0.105 µM | apparent KD of MS2 coat protein (input ligand: none): 0.137 µM

AUUUAACAAGCUUUUUGCUCGUCUUAUAAACAUGAGGAUCACCCAUGUAAUAGCGUGAGAGUAAAUAAAUAAAUAAU [JMF 82] (puzzle: Sensor for hsa-mir-208a)
apparent KD of MS2 coat protein [1]: 0.0171 µM | apparent KD of MS2 coat protein [2]: 0.0427 µM | apparent KD of MS2 coat protein [3]: 0.0142 µM

AUUAAUAAUCGAGGAUAUCACGUCGUUUAGACGUGAGAAGGCGAUCAUAACAUGAGGAUCACCCAUGUAUUACAUGAAGUUAAU [SSNG1/4-B3] (Eterna round: R96, puzzle: Same State NG 1)
apparent KD of MS2 coat protein (input ligand: FMN 200 uM): 0.0378 µM | apparent KD of MS2 coat protein [4]: 0.0263 µM | apparent KD of MS2 coat protein (input ligand: none): 0.0393 µM

GAGUGACGAUUAGGAUAUAUAGUGAUAAUGAUAAUAGAAGGAAUUGACAUGAGGAUCACCCAUGUAGGACUAAUCCAGAGAGAG [Parity 28 - Jieux - Same State NG 1] (Eterna round: R96, puzzle: Same State NG 1)
apparent KD of MS2 coat protein [4]: 0.0449 µM

GUAGCAUACCGAGGAUAUUCAUAUUACAUGAGGAUCACCCAUGUUAGGCCACAUUAGUGGCCUUGGGAGAAGGCGGAAUGCUAC [Xeonanis - 20 Mod40] (Eterna round: R96, puzzle: Same State NG 2)
apparent KD of MS2 coat protein (input ligand: FMN 200 uM): 0.0146 µM | apparent KD of MS2 coat protein [4]: 0.0697 µM | apparent KD of MS2 coat protein (input ligand: none): 0.104 µM

CACGUCCAGGUAGGAUAUGAGGUGCCACAGGGAAAAGCCUGUGGACAUGAGGAUCACCCAUGUCCUCAGAAGGGCCGGACGUGG [Reanorge] (Eterna round: R96, puzzle: Same State NG 2)
apparent KD of MS2 coat protein (input ligand: FMN 200 uM): 0.0173 µM | apparent KD of MS2 coat protein [4]: 0.0528 µM | apparent KD of MS2 coat protein (input ligand: none): 0.072 µM

GCCGCGUUUCGCGCCUACAUGAGGAUCACCCAUGUAUGUAGGCAGGAUAUCGUUUGCUUUGCAAACGAGAAGGGCUGUAGUGGC [salish99_SSNG3_R04_008] (Eterna round: R96, puzzle: Same State NG 3)
apparent KD of MS2 coat protein (input ligand: FMN 200 uM): 0.0704 µM | apparent KD of MS2 coat protein [4]: 0.165 µM | apparent KD of MS2 coat protein (input ligand: none): 0.188 µM
